Test results as given in patent publication US20220396822A1, “Method for Measuring Pentosidine and Measurement Kit” (Kikkoman Corporation, priority 2019, published 2022).

Experiments:
Assay type in all cases: biochemical
[1] = Substrate specificity analysis of amino acid degrading enzymes (reaction rate, A555); conditions: room temperature, pH 6.8, amino acids 4 mM, pentosidine 2 mM solutions
Method: The amino acid eliminating enzyme 1 liquid obtained in Example 12 was diluted to 0.134 U/ml with a 0.1 M potassium phosphate buffer (pH 6.8).
Pentosidine (which was the same as in Example 12) was dissolved at 2 mM in deionized water. Various amino acids were each dissolved at 4 mM in deionized water.
Peroxidase (manufactured by Toyobo Co., Ltd.) (3.99 U/ml), 4-aminoantipyrine (manufactured by Fluka/Honeywell International Inc.) (1.8 mM), and TOOS (manufactured by Dojindo Laboratories Co., Ltd.) (2 mM) were dissolved in deionized water.
Every measurement was performed at room temperature unless otherwise specified. A 96-well microwell plate (manufactured by Nunc/Thermo Fisher Scientific, Inc.) was used in reaction.
25 μl of each amino acid solution or the pentosidine solution of (2) and 25 μl of the coloring reagent of (3) were added in order to 50 μl of the enzyme liquid of (1). At the start and ten minutes later, absorbance at 555 nm was measured. A slope of elevation in absorbance was regarded as a reaction rate for the target substrate. […]
Every measurement was performed at room temperature unless otherwise specified. […] At the start and ten minutes later, absorbance at 555 nm was measured. A slope of elevation in absorbance was regarded as a reaction rate for the target substrate.

[2] = Method for measuring enzymatic activity (pentosidine oxidase activity, A555), Examples 9 and 10; conditions: 37° C., pH 7.5; 1 mg enzyme powder in 1 mL deionized water
Method: The amount of the enzyme that produced 1 μmol of hydrogen peroxide per minute at 37° C. was defined as 1 unit (U). The activity was calculated according to the following expression.
Each buffer was prepared as a 50 mM (final concentration) citric acid-100 mM potassium phosphate buffer (pH 4.0 to 7.5), a 100 mM (final concentration) potassium phosphate buffer (pH 6.5 to 8.0), and a 100 mM (final concentration) glycine buffer (pH 8.0 to 11.0). Enzyme reaction was performed at each pH at a temperature of 37° C. using these buffers. […] It was therefore concluded that the optimum pH of PenOX2 is pH 6.5 to 8.0 and is most preferably pH 7.5.
The activity of PenOX2 was measured at varying temperatures using a 50 mM (final concentration) potassium phosphate buffer (pH 7.5). […] It was thus concluded that the range of the optimum temperature of PenOX2 is from 37° C. to 50° C.
As mentioned above, both PenOX1 and PenOX2 had pentosidine oxidase activity. When the percent match between their amino acid sequences was examined using the BLAST program, the amino acid sequence homology therebetween was 38.2%. […] The amino acid sequence homology to PenOX1 and PenOX2 and pentosidine oxidase activity of each enzyme were as follows.

[3] = Pentosidine quantification test (DA-67/peroxidase, A658); conditions: 37° C., pH 7.0
Method: The following reagents were prepared, and pentosidine was measured using Bio Majesty JCA-BM1650 (manufactured by JEOL Ltd.).
0.2 μM, 0.4 μM, 0.6 μM, 1.0 μM, 2.0 μM or 4.0 μM pentosidine solution (prepared using the same pentosidine as in Example 2)
120 mM potassium phosphate buffer (pH 7.0)
0.2 mM DA-67 (10-(carboxymethylaminocarbonyl)-3,7-bis(dimethylamino)phenothiazine, sodium salt) (manufactured by FUJIFILM Wako Pure Chemical Corp.)
25 μL of each sample was added to 50 μL of the first reagent, and the mixture was incubated at 37° C. for 5 minutes. Then, 25 μL of the second reagent was added thereto, and pentosidine oxidation reaction mediated by PenOX2 and reaction for the detection of hydrogen peroxide produced through the reaction were allowed to proceed at 37° C. for 5 minutes.
In the reaction for the detection of hydrogen peroxide, DA-67 was oxidized, with concomitant consumption of […], into methylene blue which in turn developed color while absorbance (A658) was elevated. […] Elevation in A658 was able to be confirmed immediately after addition of the second reagent containing PenOX2.
Subsequently, the amount of elevation in A658 (ΔA) caused by the oxidation of pentosidine was calculated according to the following expression.
ΔA=(Absorbance 5 minutes after addition of the second reagent)−(Absorbance immediately before addition of the second reagent×0.75)

Molecule	substrate having the highest reaction rate [1]	specific activity (pentosidine oxidase) as a reference value [2]	other results
amino acid degrading enzyme 1: mature escapin derived from Aplysia californica (SEQ ID NO: 15) expressed in Aspergillus sojae (protein, listed as Aplysia californica) DGVCRNRRQCNKEVCGSSYDVAIVGAGPGGANSAYMLRESGLDIAVFEYSDRVGGRLFTYQLPNTPDVNLEIGGMRFIEGAMHRLWKVISELGLTPKVFKEGFGKEGRQRFYLRGQSLTKKQVKSGDVPYDLSPEEKANQGRLVEYYLEKLTGLQLNGGPLKREVALKLTVPDGRFLYDLTFDEALDLVASPEGKEFARDTHVFTSEVTLDASAISIFDDHLGEDYYGSEIYTLEEGMSSVPQGLLQTFLDAAKSNEFFPNNHLKALRRRTNGQYVLYFEPTTSKDGQTTINYLEPLKVVCAQRVILAMPVYALRQLDWSQLRNDRATQAYRAVRPMPASKVFMTFDQPWWLQNERKSWVTKSDALFSQMYDWQKSEASGDYILIASYADGLKAQYLRELKNQGEDIPGSDPGYNQVTVPLKDAILEHLTEAYGVERDSIPEPVTAASQFWTDYPFGCGWITWRAGYHFDDVISTMRRPSLKDEVYVVGSDYSWGLISSWIEGALETSENVINDYFL	arginine	–	–
Trichoderma viride-Derived Lysine Oxidase: purchased enzyme manufactured by Merck KGaA, SEQ ID NO: 14 (protein, Trichoderma viride) MDNVDFAESVRTRWARRLIREKVAKELNILTERLGEVPGIPPPREGRFLGGGYSHDNLPSDPLYSSIKPALLKEAPRAEEELPPRKVCIVGAGVSGLYIAMILDDLKIPNLTYDIFESSSRTGGRLYTHHFTDAKHDYYDIGAMRYPDIPSMKRTFNLFKRTGMPLIKYYLDGENTPQLYNNHFFAKGVVDPYMVSVANGGTVPDDVVDSVGEKLQQAFGYYKEKLAEDFDKGFDELMLVDDMTTREYLKRGGPKGEAPKYDFFAIQWMETQNTGTNLFDQAFSESVIDSFDFDNPTKPEWYCIEGGTSLLVDAMKETLVHKVQNNKRVEAISIDLDAPDDGNMSVKIGGKDYSGYSTVFNTTALGCLDRMDLRGLNLHPTQADAIRCLHYDNSTKVALKFSYPWWIKDCGITCGGAASTDLPLRTCVYPSYNLGDTGEAVLLASYTWSQDATRIGSLVKDAPPQPPKEDELVELILQNLARLHAEHMTYEKIKEAYTGVYHAYCWANDPNVGGAFALFGPGQFSNLYPYLMRPAAGGKFHIVGEASSVHHAWIIGSLESAYTAVYQFLYKYKMWDYLRLLLERWQYGLQELETGKHGTAHLQFILGSLPKEYQVKIV	–	0.063 U/mg	–
PenOX1: protein having the amino acid sequence of SEQ ID NO: 2, pentosidine oxidase from a filamentous fungus of the genus Sarocladium (protein, listed as Sarocladium sp.) MKSPSLAVAGLLLGSSSLSHATQLRIETRKSLNSRIANVHIDVDAPVAHQVVFTYGPCDSESQENAHHVIAQSQKLEGRKPHRLIWTMPKDLHPDDCISAWGESGDLLGRSVPQKVAHKEMRRRKRDDSDYSIPMNSSSGIDVYGPWFDGVALLEKSDNHNVDVEAAKAKEIAIVGAGMAGLTTYFILSEAGLSNLTILEASGRLGGRVRTEYLSGGPRDHSYAEMGPMRIPYQARFGDKAYNISDQAIFFRLVEKVNERNKKLGNTKDLINLIPFIQSSPNGLAYYQGNKLENGLPPTQADVAADPALGNESPEIPESAQELAAQLQRALPNAEFLELMATNFWQAHAEFLENQGPAGLPGDQWSEFAFLVNYLNATVFDANAVTGGYDWHSSLDRSSLVGMNLLPNAFHPLVDDITKFNAKVEKVQLDEKTSRLKLHWRANYTDPELESQSFDYAILSPTMPAVQKLRLPGLPFAMRNAVDSMPYASACKVALEYRTRFWEKFDNPIYGSCSTSTDIPGIGSVCYPSSNINGSGPASLLASYEIGRPYGAEWAGIPEEQHVQYVIDAMIDIHGEVARREFTGKCKRKCWALDEFSNGGWASPTVGNHETYLPSFFETHSHMIFVGEHTSYTHAWIASAIESAVRGSVQLLLELGLIDEAKDVVNTWMARWISVVSDLSKAVVSGASA	–	–	pentosidine oxidizing activity [3]: exhibited pentosidine oxidizing activity
Crotalus Atrox-Derived Amino Acid Oxidase Type I: purchased enzyme manufactured by Merck KGaA, SEQ ID NO: 13 (protein, Crotalus atrox) AHDRNPLEECFRETDYEEFLEIAKNGLTATSNPKRVVIVGAGMAGLSAAYVLAGAGHQVTVLEASERVGGRVRTYRKKDWYANLGPMRLPTKHRIVREYIKKFDLKLNEFSQENENAWYFIKNIRKRVREVKNNPGLLEYPVKPSEEGKSAAQLYVESLRKVVEELRSTNCKYILDKYDTYSTKEYLLKEGNLSPGAVDMIGDLLNEDSGYYVSFIESLKHDDIFGYEKRFDEIVGGMDQLPTSMYEAIKEKVQVHFNARVIEIQQNDREATVTYQTSANEMSSVTADYVIVCTTSRAARRIKFEPPLPPKKAHALRSVHYRSGTKIFLTCTKKFWEDDGIHGGKSTTDLPSRFIYYPNHNFTSGVGVIIAYGIGDDANFFQALDFKDCADIVINDLSLIHELPKEDIQTFCHPSMIQRWSLDKYAMGGITTFTPYQFQHFSEALTAPFKRIYFAGEYTAQFHGWIDSTIKSGLTAARDVNRASENPSGIHLSNDNEF	–	0.022 U/mg	–
amino acid eliminating enzyme 2: Crotalus adamanteus-derived L-amino acid oxidase Type I, manufactured by Merck KGaA (SEQ ID NO: 19) (protein, listed as Crotalus adamanteus) AHDRNPLEECFRETDYEEFLEIAKNGLTATSNPKRVVIVGAGMAGLSAAYVLAGAGHQVTVLEASERVGGRVRTYRKKDWYANLGPMRLPTKHRIVREYIKKFDLKLNEFSQENENAWYFIKNIRKRVREVKNNPGLLEYPVKPSEEGKSAAQLYVESLRKVVEELRSTNCKYILDKYDTYSTKEYLLKEGNLSPGAVDMIGDLLNEDSGYYVSFIESLKHDDIFGYEKRFDEIVGGMDQLPTSMYEAIKEKVQVHFNARVIEIQQNDREATVTYQTSANEMSSVTADYVIVCTTSRAARRIKFEPPLPPKKAHALRSVHYRSGTKIFLTCTKKFWEDDGIHGGKSTTDLPSRFIYYPNHNFTSGVGVIIAYGIGDDANFFQALDFKDCADIVINDLSLIHELPKEDIQTFCHPSMIQRWSLDKYAMGGITTFTPYQFQHFSEALTAPFKRIYFAGEYTAQFHGWIDSTIKSGLTAARDVNRASENPSGIHLSNDNEF	leucine	–	–
